The numbers were not newly measured in PMC7927047, which cites them from elsewhere.

In data set [1] the target is Cbl-b (Type I orientation, R904) (Homo sapiens) (UniProt Q13191). The experiment in a line: NMR titration.
For data set [2], the target named is Cbl-b (Type II orientation, R911) (Homo sapiens) (UniProt Q13191). The experiment in a line: NMR titration.
Chain of Cbl-b (Type II orientation, R911) (Homo sapiens) (Q13191 whole entry): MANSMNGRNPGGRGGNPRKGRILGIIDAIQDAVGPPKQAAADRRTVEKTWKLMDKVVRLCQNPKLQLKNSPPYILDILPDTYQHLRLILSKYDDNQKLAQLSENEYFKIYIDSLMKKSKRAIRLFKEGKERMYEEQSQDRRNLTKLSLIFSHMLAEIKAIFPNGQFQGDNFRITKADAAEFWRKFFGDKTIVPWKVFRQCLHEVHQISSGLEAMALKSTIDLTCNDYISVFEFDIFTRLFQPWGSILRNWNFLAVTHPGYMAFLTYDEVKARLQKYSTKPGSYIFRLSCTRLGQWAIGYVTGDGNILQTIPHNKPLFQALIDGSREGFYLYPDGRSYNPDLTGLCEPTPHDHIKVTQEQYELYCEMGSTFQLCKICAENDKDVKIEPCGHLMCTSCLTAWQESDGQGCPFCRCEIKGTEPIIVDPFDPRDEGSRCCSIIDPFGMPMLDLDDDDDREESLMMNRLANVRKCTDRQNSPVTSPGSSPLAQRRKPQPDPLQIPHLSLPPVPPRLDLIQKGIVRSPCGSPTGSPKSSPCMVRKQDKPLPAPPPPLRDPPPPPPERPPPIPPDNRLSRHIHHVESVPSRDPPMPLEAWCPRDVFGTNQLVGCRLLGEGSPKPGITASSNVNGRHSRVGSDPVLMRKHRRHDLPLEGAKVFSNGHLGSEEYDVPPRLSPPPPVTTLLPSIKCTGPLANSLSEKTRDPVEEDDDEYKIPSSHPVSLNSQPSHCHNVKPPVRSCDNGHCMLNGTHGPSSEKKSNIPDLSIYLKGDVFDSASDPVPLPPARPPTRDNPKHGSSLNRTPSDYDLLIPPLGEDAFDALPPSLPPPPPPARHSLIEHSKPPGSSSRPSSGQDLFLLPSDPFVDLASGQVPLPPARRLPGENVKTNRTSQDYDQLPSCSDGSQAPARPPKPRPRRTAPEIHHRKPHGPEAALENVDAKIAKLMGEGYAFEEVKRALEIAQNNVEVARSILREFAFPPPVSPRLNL

Chain of CIN85 SH3 (Q96B97 1-58): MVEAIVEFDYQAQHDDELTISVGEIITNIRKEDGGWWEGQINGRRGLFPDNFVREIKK
Chain of Cbl-b (Type I orientation, R904) (Homo sapiens) (Q13191 whole entry): as the sequence (Q13191 whole entry) above

As to CIN85 SH3 (from UniProt Q96B97), the dissociation constant (Kd) is 46.9 µM in data set [1] and 2 µM in data set [2].
